Substrate in data set [1]: O=P(O)(O)O[C@H]1O[C@H](CO)[C@@H](O)[C@H](O)[C@@H]1O
The experiment in a line: purified protein. The format is biochemical, Homo sapiens. To be noted: pH 7.5, 32°C.

Substrate in data set [2]: O=P(O)(O)O[C@H]1O[C@H](CO)[C@@H](O)[C@H](O)[C@H]1O
The experiment in a line: purified protein. To be noted: 27 μM Glc-1,6-P2, MgCl2 5 mM, pH 7.5, 32°C. The format is biochemical, Homo sapiens.

Experimental findings from publication PMC5736207 are described below.

B1: PMM2 (phosphomannomutase2) (Homo sapiens) (protein)
chain: AAPGPALCLFDVDGTLTAPRQKITKEMDDFLQKLRQKIKIGVVGGSDFEKVQEQLGNDVVEKYDYVFPENGLVAYKDGKLLCRQNIQSHLGEALIQDLINYCLSYIAKIKLPKKRGTFIEFRNGMLNVSPIGRSCSQEERIEFYELDKKENIRQKFVADLRKEFAGKGLTFSIGGQISFDVFPDGWDKRYCLRHVENDGYKTIYFFGDKTMPGGNDHEIFTDPRTMGYSVTAPEDTRRICELLFS
notes: recombinant, E. coli BL21(DE3), purified as in earlier work; no tag mentioned
B1: the Km in “purified protein [1]” (3 μM Man-1,6-P2, MgCl2 5 mM) was 23.7 ± 4.5 µM.

B2: PMM1 (phosphomannomutase1) (Homo sapiens; E219K/M186Q/N218D) (protein)
chain: AVTAQAARRKERVLCLFDVDGTLTPARQKIDPEVAAFLQKLRSRVQIGVVGGSDYCKIAEQLGDGDEVIEKFDYVFAENGTVQYKHGRLLSKQTIQNHLGEELLQDLINFCLSYMALLRLPKKRGTFIEFRNGMLNISPIGRSCTLEERIEFSELDKKEKIREKFVEALKTEFAGKGLRFSRGGQISFDVFPEGWDKRYCLDSLDQDSFDTIHFFGDKTSPGGNDFEIFADPRTVGHSVVSPQDTVQRCREIFFPETAHEA
notes: recombinant, E. coli BL21(DE3), purified as in earlier work (DEAE, butyl Sepharose); dimer; no tag mentioned
B2: the Km in “purified protein [1]” (10 μM Man-1,6-P2, MgCl2 5 mM) worked out at 1.6 ± 0.4 µM; in “purified protein [2]”, 3.5 ± 1.3 µM.

B3: PMM1 (phosphomannomutase1) (Homo sapiens) (protein)
chain: AVTAQAARRKERVLCLFDVDGTLTPARQKIDPEVAAFLQKLRSRVQIGVVGGSDYCKIAEQLGDGDEVIEKFDYVFAENGTVQYKHGRLLSKQTIQNHLGEELLQDLINFCLSYMALLRLPKKRGTFIEFRNGMLNISPIGRSCTLEERIEFSELDKKEKIREKFVEALKTEFAGKGLRFSRGGMISFDVFPEGWDKRYCLDSLDQDSFDTIHFFGNETSPGGNDFEIFADPRTVGHSVVSPQDTVQRCREIFFPETAHEA
notes: as for B2
Turning to B3, the Km in the data set “purified protein [1]” (10 μM Man-1,6-P2, MgCl2 5 mM) stood at 6.5 ± 1.3 µM; in the data set “purified protein [2]”, 7.3 ± 1.7 µM.

Usually Km stands for the concentration of substrate that gives half-maximal velocity.
